Test results from publication PMC10393192, “Structure and DNA-bridging activity of the essential Rec114–Mei4 trimer interface”.

How the values were obtained:
[1] = target: Rec114(388-428) K417A/K424A;Mei4N (Saccharomyces cerevisiae;Saccharomyces cerevisiae) (UniProt P29467); test: EMSA; details: EMSA: 25 mM Tris-HCl pH 7.4, 100 mM NaCl, 5 ng DNA, 20 min, room temperature; AFM: 25 mM HEPES-NaOH pH 7.4, 5 mM MgCl2, 50 mM NaCl, 10% glycerol, 30 min, RT …
[2] = target: Rec114(388-428) K403A/K407A;Mei4N (Saccharomyces cerevisiae;Saccharomyces cerevisiae) (UniProt P29467); test: EMSA; details: EMSA: 25 mM Tris-HCl pH 7.4, 100 mM NaCl, 5 ng DNA, 20 min, room temperature; AFM: 25 mM HEPES-NaOH pH 7.4, 5 mM MgCl2, 50 mM NaCl, 10% glycerol, 30 min, RT …
[3] = target: Rec114(388-428);Mei4N (Saccharomyces cerevisiae;Saccharomyces cerevisiae) (UniProt P29467); test: EMSA; details: EMSA: 25 mM Tris-HCl pH 7.4, 100 mM NaCl, 5 ng DNA, 20 min, room temperature; AFM: 25 mM HEPES-NaOH pH 7.4, 5 mM MgCl2, 50 mM NaCl, 10% glycerol, 30 min, RT …
[4] = test system: Rec114(388-428);Mei4(13-43) (Saccharomyces cerevisiae;Saccharomyces cerevisiae); test: EMSA; details: EMSA: 25 mM Tris-HCl pH 7.4, 100 mM NaCl, 5 ng DNA, 20 min, room temperature; AFM: 25 mM HEPES-NaOH pH 7.4, 5 mM MgCl2, 50 mM NaCl, 10% glycerol, 30 min, RT …
[5] = target: Rec114(386-428);Mei4N (Saccharomyces cerevisiae;Saccharomyces cerevisiae) (UniProt P29467); test: EMSA; details: EMSA: 25 mM Tris-HCl pH 7.4, 100 mM NaCl, 5 ng DNA, 20 min, room temperature; AFM: 25 mM HEPES-NaOH pH 7.4, 5 mM MgCl2, 50 mM NaCl, 10% glycerol, 30 min, RT …
[6] = target: Rec114(388-428) K399A/R400A;Mei4N (Saccharomyces cerevisiae;Saccharomyces cerevisiae) (UniProt P29467); test: EMSA; details: EMSA: 25 mM Tris-HCl pH 7.4, 100 mM NaCl, 5 ng DNA, 20 min, room temperature; AFM: 25 mM HEPES-NaOH pH 7.4, 5 mM MgCl2, 50 mM NaCl, 10% glycerol, 30 min, RT …
[7] = target: Rec114C;Mei4N-ybbR-LD650 (Saccharomyces cerevisiae;Saccharomyces cerevisiae) (UniProt P32841); test: EMSA; details: C50, single experiment; EMSA: 25 mM Tris-HCl pH 7.4, 100 mM NaCl, 5 ng DNA, 20 min, room temperature; AFM: 25 mM HEPES-NaOH pH 7.4, 5 mM MgCl2, 50 mM NaCl, 10% glycerol, 30 min, RT …
[8] = target: Rec114C;Mei4N-ybbR (Saccharomyces cerevisiae;Saccharomyces cerevisiae) (UniProt P32841); test: EMSA; details: C50, unlabeled; EMSA: 25 mM Tris-HCl pH 7.4, 100 mM NaCl, 5 ng DNA, 20 min, room temperature; AFM: 25 mM HEPES-NaOH pH 7.4, 5 mM MgCl2, 50 mM NaCl, 10% glycerol, 30 min, RT …
Rec114C;Mei4N [9] = target: T1, Rec114C;Mei4N (Saccharomyces cerevisiae;Saccharomyces …, UniProt P32841;P29467 375-428;1-43, |); test: EMSA; details: EMSA: 25 mM Tris-HCl pH 7.4, 100 mM NaCl, 5 ng DNA, 20 min, room temperature; AFM: 25 mM HEPES-NaOH pH 7.4, 5 mM MgCl2, 50 mM NaCl, 10% glycerol, 30 min, RT …
T1 sequence 1: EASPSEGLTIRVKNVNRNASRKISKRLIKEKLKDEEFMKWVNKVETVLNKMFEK
T1 sequence 2: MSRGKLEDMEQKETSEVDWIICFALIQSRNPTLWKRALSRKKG

[10] = test system: Rec114(325-428);Mei4(1-90) (Saccharomyces cerevisiae;Saccharomyces cerevisiae); test: EMSA; details: EMSA: 25 mM Tris-HCl pH 7.4, 100 mM NaCl, 5 ng DNA, 20 min, room temperature; AFM: 25 mM HEPES-NaOH pH 7.4, 5 mM MgCl2, 50 mM NaCl, 10% glycerol, 30 min, RT …
[11] = target: Rec114(388-428) R395A/K396A;Mei4N (Saccharomyces cerevisiae;Saccharomyces cerevisiae) (UniProt P29467); test: EMSA; details: EMSA: 25 mM Tris-HCl pH 7.4, 100 mM NaCl, 5 ng DNA, 20 min, room temperature; AFM: 25 mM HEPES-NaOH pH 7.4, 5 mM MgCl2, 50 mM NaCl, 10% glycerol, 30 min, RT …
Rec114C;Mei4N [12] = target: T1, Rec114C;Mei4N; test: EMSA; C50; EMSA: 25 mM Tris-HCl pH 7.4, 100 mM NaCl, 5 ng DNA, 20 min, room temperature; AFM: 25 mM HEPES-NaOH pH 7.4, 5 mM MgCl2, 50 mM NaCl, 10% glycerol, 30 min, RT; optical trap: same buffer plus 5 nM SYTOX Orange, RT; details: protein: recombinant;recombinant; tags: 6xHis-SUMO removed by Ulp1 (tagged chain);6xHis-SUMO removed by Ulp1 when on this chain; chain copies: 2;1; blunt
Rec114C;Mei4N [13] = target: T1, Rec114C;Mei4N; test: EMSA; C50; main text gives ~800 nM; EMSA: 25 mM Tris-HCl pH 7.4, 100 mM NaCl, 5 ng DNA, 20 min, room temperature; AFM: 25 mM HEPES-NaOH pH 7.4, 5 mM MgCl2, 50 mM NaCl, 10% glycerol, 30 min, RT; optical trap: same buffer plus 5 nM SYTOX Orange, RT; details: protein: recombinant;recombinant; tags: 6xHis-SUMO removed by Ulp1 (tagged chain);6xHis-SUMO removed by Ulp1 when on this chain; chain copies: 2;1; blunt

For 150-bp DNA, the K half [1] was 900 nM, the K half [2] was 1000 nM and the K half [3] was 110 nM. The K half [4] was 100 nM, the K half [5] was 110 nM and the K half [6] was 2000 nM. The K half [7] was 90 nM, the K half [8] was 90 nM and the K half (Rec114C;Mei4N [9]) was 90 nM. The K half [10] was 90 nM and the K half [11] was 1000 nM.

B1: dsDNA80 (dsDNA)
DNA 1: CTAGTATAGAGCCGGCGCGCCATGTCTAGATAGCGTTAGGTCTGCCGAATAGTACTACTCGGATCCCGAGCGAACCACGC
DNA 2: GCGTGGTTCGCTCGGGATCCGAGTAGTACTATTCGGCAGACCTAACGCTATCTAGACATGGCGCGCCGGCTCTATACTAG
For B1, the “apparent K (half saturation)” value (Rec114C;Mei4N [12]) was 100 ± 20 nM.

B2: dsDNA20 (dsDNA)
DNA 1: AAAGATGTCCTAGCAATGTA
DNA 2: TACATTGCTAGGACATCTTT
B2 was tested, and the “apparent K (half saturation)” value (Rec114C;Mei4N [13]) was 600 ± 100 nM.
